The supplement of paper PMC9112550, “Optimization of the antimicrobial peptide Bac7 by deep mutational scanning” (BMC Biology, 2022)

System: Escherichia coli TOP10
Test: shrunken log2 fold change of peptide-encoding DNA abundance (4.5 h post-induction vs induction); higher = less antimicrobial activity (less host growth inhibition)
Conditions: time post-induction: 4.5 h; library: site-saturation at positions 5, 18, 19, 20
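Note: peptides expressed intracellularly from a pBAD plasmid library in pooled LB shake-flask culture, induced with 0.3% L-arabinose, DNA abundance read by NGS, three biological replicates, DESeq2 with apeglm shrinkage.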

| Sequence | shrunken log2 fold change |
| --- | --- |
| RRIRKRPPRLPRPRPRPGNEPRP | 0.204 |
| RRIRSRPPRLPRPRPRPNNRPRP | -0.475 |
| RRIRYRPPRLPRPRPRPWWDPRP | -0.266 |
| RRIRTRPPRLPRPRPRPDSKPRP | 0.0427 |
| RRIRFRPPRLPRPRPRPDKDPRP | -0.393 |
| RRIRQRPPRLPRPRPRPHIVPRP | -0.225 |
| RRIRGRPPRLPRPRPRPVNGPRP | -0.0658 |
| RRIRFRPPRLPRPRPRPLPLPRP | 0.0222 |
| RRIRLRPPRLPRPRPRPCCEPRP | 0.812 |
| RRIRGRPPRLPRPRPRPADCPRP | 0.349 |
| RRIRARPPRLPRPRPRPSRRPRP | 0.297 |
| RRIRNRPPRLPRPRPRPAISPRP | -0.128 |
| RRIRKRPPRLPRPRPRPKCVPRP | 0.52 |
| RRIRARPPRLPRPRPRPQQFPRP | 0.097 |
| RRIRKRPPRLPRPRPRPYRMPRP | -0.329 |
| RRIRMRPPRLPRPRPRPPSCPRP | 0.932 |
| RRIRTRPPRLPRPRPRPGMWPRP | 0.158 |
| RRIRDRPPRLPRPRPRPTEPPRP | 0.185 |
| RRIRRRPPRLPRPRPRPQSNPRP | -0.285 |
| RRIRHRPPRLPRPRPRPELMPRP | -0.141 |
| RRIRFRPPRLPRPRPRPHRYPRP | -0.402 |
| RRIRMRPPRLPRPRPRPTTCPRP | 0.0613 |
| RRIRCRPPRLPRPRPRPKVYPRP | -0.167 |
| RRIRVRPPRLPRPRPRPYTGPRP | -0.0211 |
| RRIRQRPPRLPRPRPRPEGYPRP | -0.0294 |

| Sequence | shrunken log2 fold change |
| --- | --- |
| RRIRMRPPRLPRPRPRPLIAPRP | 0.34 |
| RRIRMRPPRLPRPRPRPMWQPRP | 0.188 |
| RRIRTRPPRLPRPRPRPVARPRP | 2.14 |
| RRIRPRPPRLPRPRPRPKVCPRP | 0.0118 |
| RRIRFRPPRLPRPRPRPMFLPRP | -0.712 |
| RRIRWRPPRLPRPRPRPGSDPRP | 0.661 |
| RRIRQRPPRLPRPRPRPAICPRP | -0.0709 |
| RRIRSRPPRLPRPRPRPRRWPRP | 0.556 |
| RRIRERPPRLPRPRPRPMQVPRP | -0.32 |
| RRIRARPPRLPRPRPRPRVPPRP | 0.428 |
| RRIRHRPPRLPRPRPRPQTTPRP | -0.0121 |
| RRIRARPPRLPRPRPRPSHLPRP | -0.41 |
| RRIRARPPRLPRPRPRPWSNPRP | 0.0711 |
| RRIRARPPRLPRPRPRPDLEPRP | 0.0744 |
| RRIRVRPPRLPRPRPRPAGIPRP | 0.165 |
| RRIRARPPRLPRPRPRPAMFPRP | -0.0337 |
| RRIRPRPPRLPRPRPRPAIQPRP | -0.00944 |
| RRIRKRPPRLPRPRPRPLRKPRP | 0.968 |
| RRIRCRPPRLPRPRPRPYACPRP | -0.0609 |
| RRIRHRPPRLPRPRPRPMHDPRP | -0.0353 |
| RRIRLRPPRLPRPRPRPFWLPRP | 0.0573 |
| RRIRARPPRLPRPRPRPTYFPRP | 0.161 |
| RRIRDRPPRLPRPRPRPPRMPRP | 0.345 |
| RRIRARPPRLPRPRPRPRVCPRP | 0.0904 |
| RRIRKRPPRLPRPRPRPQFMPRP | -0.54 |

| Sequence | shrunken log2 fold change |
| --- | --- |
| RRIRGRPPRLPRPRPRPRVIPRP | 0.227 |
| RRIRYRPPRLPRPRPRPRTLPRP | -0.537 |
| RRIRGRPPRLPRPRPRPMEVPRP | -0.121 |
| RRIRWRPPRLPRPRPRPMYFPRP | -0.555 |
| RRIRDRPPRLPRPRPRPEQRPRP | 0.0765 |
| RRIRWRPPRLPRPRPRPKLLPRP | 0.336 |
| RRIRHRPPRLPRPRPRPCVPPRP | -0.00981 |
| RRIRQRPPRLPRPRPRPTCKPRP | 0.0706 |
| RRIRDRPPRLPRPRPRPWINPRP | 0.0363 |
| RRIRDRPPRLPRPRPRPRQTPRP | 0.612 |
| RRIRTRPPRLPRPRPRPNLFPRP | 0.0121 |
| RRIRFRPPRLPRPRPRPVLIPRP | -0.17 |
| RRIRVRPPRLPRPRPRPGWMPRP | 0.159 |
| RRIRFRPPRLPRPRPRPSTSPRP | -0.0297 |
| RRIRLRPPRLPRPRPRPPGTPRP | 0.448 |
| RRIRQRPPRLPRPRPRPQYPPRP | -0.199 |
| RRIRCRPPRLPRPRPRPLMIPRP | -0.431 |
| RRIRIRPPRLPRPRPRPNSSPRP | -0.369 |
| RRIRRRPPRLPRPRPRPSTEPRP | 0.664 |
| RRIRARPPRLPRPRPRPHHPPRP | -0.242 |
| RRIRLRPPRLPRPRPRPFFKPRP | -0.169 |
| RRIRRRPPRLPRPRPRPFGCPRP | 0.222 |
| RRIRTRPPRLPRPRPRPHVMPRP | -0.0914 |
| RRIRRRPPRLPRPRPRPYRVPRP | -0.0172 |
| RRIRKRPPRLPRPRPRPNWSPRP | 0.139 |

| Sequence | shrunken log2 fold change |
| --- | --- |
| RRIRCRPPRLPRPRPRPRSFPRP | -0.342 |
| RRIRMRPPRLPRPRPRPNEGPRP | 0.137 |
| RRIRDRPPRLPRPRPRPRAEPRP | 0.552 |
| RRIRLRPPRLPRPRPRPVYYPRP | -0.633 |
| RRIRLRPPRLPRPRPRPRCEPRP | 0.194 |
| RRIRDRPPRLPRPRPRPHSCPRP | -0.00804 |
| RRIRQRPPRLPRPRPRPKVQPRP | 0.0205 |
| RRIRRRPPRLPRPRPRPVHKPRP | 0.092 |
| RRIRPRPPRLPRPRPRPMYRPRP | -0.752 |
| RRIRCRPPRLPRPRPRPEWQPRP | -0.0271 |
| RRIRNRPPRLPRPRPRPEADPRP | 0.0747 |
| RRIRSRPPRLPRPRPRPPPSPRP | 0.785 |
| RRIRGRPPRLPRPRPRPDACPRP | 1.23 |
| RRIRARPPRLPRPRPRPVTQPRP | 0.0996 |
| RRIRNRPPRLPRPRPRPFQSPRP | -0.0983 |
| RRIRSRPPRLPRPRPRPLKRPRP | 0.026 |
| RRIRTRPPRLPRPRPRPLVFPRP | -0.214 |
| RRIRDRPPRLPRPRPRPYMQPRP | -0.0171 |
| RRIRSRPPRLPRPRPRPSRGPRP | 0.483 |
| RRIRTRPPRLPRPRPRPLLLPRP | 0.758 |
| RRIRVRPPRLPRPRPRPEDTPRP | 0.106 |
| RRIRWRPPRLPRPRPRPGLPPRP | 0.288 |
| RRIRRRPPRLPRPRPRPFKNPRP | 0.0357 |
| RRIRHRPPRLPRPRPRPGYFPRP | -0.0725 |
| RRIRIRPPRLPRPRPRPLTGPRP | -0.0674 |

| Sequence | shrunken log2 fold change |
| --- | --- |
| RRIRRRPPRLPRPRPRPENIPRP | -0.468 |
| RRIRQRPPRLPRPRPRPGWHPRP | 0.0202 |
| RRIRMRPPRLPRPRPRPMQCPRP | -0.0018 |
| RRIRQRPPRLPRPRPRPKRHPRP | -0.0733 |
| RRIRQRPPRLPRPRPRPPMVPRP | -0.0885 |
| RRIRDRPPRLPRPRPRPWCFPRP | -0.0692 |
| RRIRKRPPRLPRPRPRPWWCPRP | 0.0624 |
| RRIRHRPPRLPRPRPRPHWHPRP | -0.25 |
| RRIRCRPPRLPRPRPRPEHMPRP | -0.201 |
| RRIRIRPPRLPRPRPRPMQFPRP | -0.343 |
| RRIRCRPPRLPRPRPRPEDLPRP | 0.117 |
| RRIRWRPPRLPRPRPRPPGWPRP | 0.527 |
| RRIRFRPPRLPRPRPRPMGAPRP | -0.0556 |
| RRIRMRPPRLPRPRPRPRCVPRP | 0.581 |
| RRIRRRPPRLPRPRPRPMPQPRP | 0.376 |
| RRIRPRPPRLPRPRPRPNAKPRP | -0.0129 |
| RRIRGRPPRLPRPRPRPPSRPRP | 1.11 |
| RRIRQRPPRLPRPRPRPIIDPRP | -0.199 |
| RRIRARPPRLPRPRPRPSIHPRP | -0.233 |
| RRIRYRPPRLPRPRPRPTYLPRP | -0.824 |
| RRIRNRPPRLPRPRPRPTVEPRP | 0.0287 |
| RRIRGRPPRLPRPRPRPVVQPRP | 0.94 |
| RRIRKRPPRLPRPRPRPHCTPRP | -0.24 |
| RRIRTRPPRLPRPRPRPAYPPRP | -0.072 |
| RRIRHRPPRLPRPRPRPTLTPRP | -0.188 |

| Sequence | shrunken log2 fold change |
| --- | --- |
| RRIRPRPPRLPRPRPRPRLMPRP | 0.337 |
| RRIRIRPPRLPRPRPRPMQQPRP | 0.0184 |
| RRIRWRPPRLPRPRPRPKNDPRP | 0.0313 |
| RRIRWRPPRLPRPRPRPLLRPRP | 0.325 |
| RRIRNRPPRLPRPRPRPYRNPRP | -0.0239 |
| RRIRGRPPRLPRPRPRPWTIPRP | 0.00608 |
| RRIRNRPPRLPRPRPRPFYQPRP | -0.8 |
| RRIRDRPPRLPRPRPRPNLYPRP | -0.0872 |
| RRIRVRPPRLPRPRPRPIRSPRP | -0.125 |
| RRIRTRPPRLPRPRPRPSSNPRP | -0.589 |
| RRIRTRPPRLPRPRPRPNSIPRP | -0.0867 |
| RRIRNRPPRLPRPRPRPHFTPRP | -0.0512 |
| RRIRDRPPRLPRPRPRPIKHPRP | -0.373 |
| RRIRSRPPRLPRPRPRPQRGPRP | 0.274 |
| RRIRVRPPRLPRPRPRPQRSPRP | -0.431 |
| RRIRGRPPRLPRPRPRPTMIPRP | 0.0786 |
| RRIRERPPRLPRPRPRPEGSPRP | 0.0172 |
| RRIRARPPRLPRPRPRPIDCPRP | 0.335 |
| RRIRRRPPRLPRPRPRPSHCPRP | -0.041 |
| RRIRNRPPRLPRPRPRPCGGPRP | -0.0209 |
| RRIRIRPPRLPRPRPRPSLGPRP | -0.245 |
| RRIRDRPPRLPRPRPRPTLYPRP | 0.26 |
| RRIRFRPPRLPRPRPRPYSVPRP | 0.062 |
| RRIRYRPPRLPRPRPRPHTVPRP | -1.21 |
| RRIRPRPPRLPRPRPRPAMEPRP | 0.226 |
